B1: Band 3 anion transport protein, P02730 (parent)
chain: MEELQDDYEDMMEENLEQEEYEDPDIPESQMEEPAAHDTEATATDYHTTSHPGTHKVYVELQELVMDEKNQELRWMEAARWVQLEENLGENGAWGRPHLSHLTFWSLLELRRVFTKGTVLLDLQETSLAGVANQLLDRFIFEDQIRPQDREELLRALLLKHSHAGELEALGGVKPAVLTRSGDPSQPLLPQHSSLETQLFCEQGDGGTEGHSPSGILEKIPPDSEATLVLVGRADFLEQPVLGFVRLQEAAELEAVELPVPIRFLFVLLGPEAPHIDYTQLGRAAATLMSERVFRIDAYMAQSRGELLHSLEGFLDCSLVLPPTDAPSEQALLSLVPVQRELLRRRYQSSPAKPDSSFYKGLDLNGGPDDPLQQTGQLFGGLVRDIRRRYPYYLSDITDAFSPQVLAAVIFIYFAALSPAITFGGLLGEKTRNQMGVSELLISTAVQGILFALLGAQPLLVVGFSGPLLVFEEAFFSFCETNGLEYIVGRVWIGFWLILLVVLVVAFEGSFLVRFISRYTQEIFSFLISLIFIYETFSKLIKIFQDHPLQKTYNYNVLMVPKPQGPLPNTALLSLVLMAGTFFFAMMLRKFKNSSYFPGKLRRVIGDFGVPISILIMVLVDFFIQDTYTQKLSVPDGFKVSNSSARGWVIHPLGLRSEFPIWMMFASALPALLVFILIFLESQITTLIVSKPERKMVKGSGFHLDLLLVVGMGGVAALFGMPWLSATTVRSVTHANALTVMGKASTPGAAAQIQEVKEQRISGLLVAVLVGLSILMEPILSRIPLAVLFGIFLYMGVTSLSGIQLFDRILLLFKPPKYHPDVPYVKRVKTWRMHLFTGIQIICLAVLWVVKSTPASLALPFVLILTVPLRRVLLPLIFRNVELQCLDADDAKATFDEEEGRDEYDEVAMPV

Variants of: B1
Settings: Homo sapiens, reversible: No, structure 1HYN, whole UniProt chain shown; for Tm / change of melting temperature, mutant - wild type (higher = more stable): Thermal, sodium phosphate 10 mM; for denaturant midpoint (higher = more stable): 24 °C, Urea, Fluorescence, sodium phosphate sodium borate 50 mM 50 mM, sodium chloride 70 mM
[1] = pH 7, CD, sodium fluoride 50 mM
[2] = pH 7.5, DSC, sodium chloride 50 mM

Row | Variant | Tm [1] | change of melting temperature, mutant - wild type (higher = more stable) [1] | Tm [2] | change of melting temperature, mutant - wild type (higher = more stable) [2] | denaturant midpoint (higher = more stable) (pH 7)
1 | K56E | 67.7 °C | -1.3 °C | 66.5 °C | 0.3 °C | 
2 | P327R | 64 °C | -5 °C |  |  | 4.56 M
3 | E40K |  |  | 64.9 °C | -1.3 °C | 4.73 M
4 | G130R | 68.7 °C | -0.3 °C | 65.5 °C | -0.7 °C | 4.85 M
